From paper PMC5268773
Read-outs that look alike come from different tables or passages of the source.

Legend:
plasmin (Homo sapiens) [1] = molecular target: plasmin (Homo sapiens) (UniProt P00747); conditions: cited from earlier work
[2] = molecular target: plasminogen (Homo sapiens) (UniProt P00747); conditions: cited from earlier work
plasmin (Homo sapiens) [3] = molecular target: plasmin (Homo sapiens) (UniProt P00747); experiment: SPR; conditions: cited from earlier work
[4] = molecular target: fibrin (purified fibrin clots) (UniProt P02671)
Chain of UniProt P02671 (P02671 36-866, chain 1 of 3): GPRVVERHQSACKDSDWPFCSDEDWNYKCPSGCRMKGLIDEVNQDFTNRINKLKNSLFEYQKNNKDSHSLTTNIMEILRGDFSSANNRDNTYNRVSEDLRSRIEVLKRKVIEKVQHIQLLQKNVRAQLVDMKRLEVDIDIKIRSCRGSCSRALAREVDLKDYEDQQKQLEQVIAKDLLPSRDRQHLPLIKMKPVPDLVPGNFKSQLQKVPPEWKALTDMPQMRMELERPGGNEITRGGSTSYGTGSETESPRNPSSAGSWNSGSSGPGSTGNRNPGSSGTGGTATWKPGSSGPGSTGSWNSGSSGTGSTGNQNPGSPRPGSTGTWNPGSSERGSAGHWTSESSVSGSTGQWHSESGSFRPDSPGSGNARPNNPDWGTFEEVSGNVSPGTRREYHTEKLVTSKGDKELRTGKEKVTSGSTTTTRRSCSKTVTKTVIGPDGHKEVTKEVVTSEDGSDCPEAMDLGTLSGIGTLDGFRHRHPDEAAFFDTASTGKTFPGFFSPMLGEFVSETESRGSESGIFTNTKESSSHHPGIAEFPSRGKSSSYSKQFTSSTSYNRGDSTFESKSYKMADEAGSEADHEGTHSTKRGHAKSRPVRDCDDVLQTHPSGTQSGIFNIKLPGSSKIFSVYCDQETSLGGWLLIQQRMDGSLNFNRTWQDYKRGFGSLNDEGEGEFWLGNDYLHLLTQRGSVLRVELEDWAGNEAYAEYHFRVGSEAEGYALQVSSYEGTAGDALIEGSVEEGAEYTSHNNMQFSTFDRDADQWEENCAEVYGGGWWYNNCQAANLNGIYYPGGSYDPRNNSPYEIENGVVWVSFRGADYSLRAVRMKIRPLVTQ
Chain of UniProt P02671 (P02675 45-491, chain 2 of 3, further chain): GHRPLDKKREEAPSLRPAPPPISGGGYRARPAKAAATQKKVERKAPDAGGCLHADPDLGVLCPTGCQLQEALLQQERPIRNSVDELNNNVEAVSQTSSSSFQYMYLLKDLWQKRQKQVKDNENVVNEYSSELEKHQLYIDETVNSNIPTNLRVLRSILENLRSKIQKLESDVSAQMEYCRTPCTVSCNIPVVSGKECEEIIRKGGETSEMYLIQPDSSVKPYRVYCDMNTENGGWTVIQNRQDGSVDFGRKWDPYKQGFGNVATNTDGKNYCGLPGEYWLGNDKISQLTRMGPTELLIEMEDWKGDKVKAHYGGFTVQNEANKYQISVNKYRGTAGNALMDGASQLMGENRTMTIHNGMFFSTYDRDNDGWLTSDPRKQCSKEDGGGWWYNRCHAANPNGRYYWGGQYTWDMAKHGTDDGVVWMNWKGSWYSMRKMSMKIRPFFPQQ
Chain of UniProt P02671 (P02679 27-453, chain 3 of 3, further chain): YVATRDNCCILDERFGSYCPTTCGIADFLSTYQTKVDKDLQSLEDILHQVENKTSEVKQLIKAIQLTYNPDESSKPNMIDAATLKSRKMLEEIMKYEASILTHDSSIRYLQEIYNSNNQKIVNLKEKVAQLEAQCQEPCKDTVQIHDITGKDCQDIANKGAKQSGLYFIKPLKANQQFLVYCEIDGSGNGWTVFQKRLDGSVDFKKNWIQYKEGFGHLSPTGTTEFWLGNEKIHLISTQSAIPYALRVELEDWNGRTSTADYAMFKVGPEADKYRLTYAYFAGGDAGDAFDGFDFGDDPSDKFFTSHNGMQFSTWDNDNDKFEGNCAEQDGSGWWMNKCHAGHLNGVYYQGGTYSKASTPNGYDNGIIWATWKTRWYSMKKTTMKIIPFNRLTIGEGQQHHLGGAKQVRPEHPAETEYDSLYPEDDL

Chain of streptokinase (P10520 27-440): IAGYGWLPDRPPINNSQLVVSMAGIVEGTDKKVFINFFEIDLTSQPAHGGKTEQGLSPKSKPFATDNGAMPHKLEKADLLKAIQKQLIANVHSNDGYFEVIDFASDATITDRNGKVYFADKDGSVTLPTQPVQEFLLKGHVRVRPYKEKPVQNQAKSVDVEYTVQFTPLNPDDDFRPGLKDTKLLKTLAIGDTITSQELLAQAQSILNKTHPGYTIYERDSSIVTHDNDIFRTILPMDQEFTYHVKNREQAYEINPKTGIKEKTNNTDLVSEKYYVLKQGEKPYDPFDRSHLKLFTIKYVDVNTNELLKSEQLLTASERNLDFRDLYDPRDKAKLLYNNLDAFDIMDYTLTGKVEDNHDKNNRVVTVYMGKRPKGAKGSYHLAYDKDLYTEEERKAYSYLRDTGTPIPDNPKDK

| Substance | Kd (plasmin (Homo sapiens) [1]) | Kd [2] | Kd (plasmin (Homo sapiens) [3]) | IC50 of tranexamic acid (TA) for inhibition of Pgn activation by rSK-M1GAS in fibrin [4] |
| --- | --- | --- | --- | --- |
| streptokinase (from UniProt P10520) | 0.3 nM | 6 nM | 0.5 nM | – |
| recombinant streptokinase from the M1 type group A streptococcus, Streptococcus pyogenes strain SF370 (rSK-M1GAS) (natural protein) | – | – | – | 133000 nM |
